This passage reports ELISA (OD 450) results from patent publication US20250388688A1 (ETHYREAL BIO, published 2025).

For assay [1], the target named is T1, soluble TSHR protein (ELISA coat) (human, UniProt P16473 22-260, limits assumed). Put plainly: ELISA, plate coated with soluble TSHR, antibody at 100 nM, anti-human IgG Fc-HRP (blank 0.052). A general note: ELISA stands for enzyme-linked immunosorbent assay.
For assay [2], the target named is T1, soluble TSHR protein (ELISA coat). Put plainly: ELISA, plate coated with soluble TSHR, antibody at 300 nM, anti-human IgG Fc-HRP (blank 0.055).
Assay [3] shares this target. Put plainly: ELISA, plate coated with soluble TSHR, antibody at 33.3 nM, anti-human IgG Fc-HRP (blank 0.051).

human IgG1 isotype control antibody came in with an ELISA (OD 450) at 100 nM in assay [1] of 0.057 OD 450. In addition, in assay [2], the ELISA (OD 450) at 300 nM stood at 0.055 OD 450. Also, the ELISA (OD 450) at 33.3 nM in assay [3] turned out to be 0.063 OD 450.
